These results are taken from publication PMC5717350, “The human CTF4-orthologue AND-1 interacts with DNA polymerase α/primase via its unique C-terminal HMG box” (Open Biology, 2017).

Conditions in all cases: both partners purified
Test [1] deals with T1, AND-1 SepB + CT (316–1129) (human, UniProt O75717 316-1129).
T1 construct: source: E. coli Rosetta2(DE3), purified (Ni-NTA, Q-Sepharose, TEV cleavage, Superdex 200)
T1 sequence (looked up): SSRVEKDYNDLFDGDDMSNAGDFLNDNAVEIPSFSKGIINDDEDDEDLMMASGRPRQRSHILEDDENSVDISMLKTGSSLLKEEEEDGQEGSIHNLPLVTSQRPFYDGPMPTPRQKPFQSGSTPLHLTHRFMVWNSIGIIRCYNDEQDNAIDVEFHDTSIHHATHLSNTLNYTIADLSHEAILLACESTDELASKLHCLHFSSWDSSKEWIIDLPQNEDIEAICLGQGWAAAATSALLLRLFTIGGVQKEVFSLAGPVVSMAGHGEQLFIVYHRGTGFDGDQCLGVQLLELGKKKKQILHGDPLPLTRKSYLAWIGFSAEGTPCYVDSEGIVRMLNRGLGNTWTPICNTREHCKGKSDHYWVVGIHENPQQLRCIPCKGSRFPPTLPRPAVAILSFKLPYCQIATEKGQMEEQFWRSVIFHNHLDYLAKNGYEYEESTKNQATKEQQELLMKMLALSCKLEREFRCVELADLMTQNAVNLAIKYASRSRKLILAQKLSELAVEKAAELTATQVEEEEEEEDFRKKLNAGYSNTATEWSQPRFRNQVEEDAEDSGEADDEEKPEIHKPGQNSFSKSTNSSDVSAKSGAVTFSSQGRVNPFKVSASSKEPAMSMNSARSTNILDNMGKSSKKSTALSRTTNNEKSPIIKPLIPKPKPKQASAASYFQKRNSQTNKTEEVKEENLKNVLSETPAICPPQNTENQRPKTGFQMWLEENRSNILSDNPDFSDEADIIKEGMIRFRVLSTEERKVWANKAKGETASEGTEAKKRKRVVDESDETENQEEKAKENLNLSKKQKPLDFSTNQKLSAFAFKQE
The test is described as follows: pull-down; GST-B fusion proteins (in figure 6a also GST-Pol α CIP, equimolar) bound to 100 µl glutathione agarose, 2.2 nmol AND-1 (1–1129, 316–1129 or 336–826) added as prey; PD buffer, 2.5 mg/ml BSA, 4°C; Coomassie, anti-His western blot in figure 6a.

In test [2] the target is T2, Full-length His10-myc-tagged AND-1 (1–1129) (human, UniProt O75717 1-1129).
T2 construct: the oligomeric state was measured only on the SepB constructs; also called His-myc-AND-1; human CTF4-orthologue AND-1; source: Sf9 insect cells (baculovirus, MultiBac), purified (Ni-NTA, Q-Sepharose)
T2 sequence (looked up): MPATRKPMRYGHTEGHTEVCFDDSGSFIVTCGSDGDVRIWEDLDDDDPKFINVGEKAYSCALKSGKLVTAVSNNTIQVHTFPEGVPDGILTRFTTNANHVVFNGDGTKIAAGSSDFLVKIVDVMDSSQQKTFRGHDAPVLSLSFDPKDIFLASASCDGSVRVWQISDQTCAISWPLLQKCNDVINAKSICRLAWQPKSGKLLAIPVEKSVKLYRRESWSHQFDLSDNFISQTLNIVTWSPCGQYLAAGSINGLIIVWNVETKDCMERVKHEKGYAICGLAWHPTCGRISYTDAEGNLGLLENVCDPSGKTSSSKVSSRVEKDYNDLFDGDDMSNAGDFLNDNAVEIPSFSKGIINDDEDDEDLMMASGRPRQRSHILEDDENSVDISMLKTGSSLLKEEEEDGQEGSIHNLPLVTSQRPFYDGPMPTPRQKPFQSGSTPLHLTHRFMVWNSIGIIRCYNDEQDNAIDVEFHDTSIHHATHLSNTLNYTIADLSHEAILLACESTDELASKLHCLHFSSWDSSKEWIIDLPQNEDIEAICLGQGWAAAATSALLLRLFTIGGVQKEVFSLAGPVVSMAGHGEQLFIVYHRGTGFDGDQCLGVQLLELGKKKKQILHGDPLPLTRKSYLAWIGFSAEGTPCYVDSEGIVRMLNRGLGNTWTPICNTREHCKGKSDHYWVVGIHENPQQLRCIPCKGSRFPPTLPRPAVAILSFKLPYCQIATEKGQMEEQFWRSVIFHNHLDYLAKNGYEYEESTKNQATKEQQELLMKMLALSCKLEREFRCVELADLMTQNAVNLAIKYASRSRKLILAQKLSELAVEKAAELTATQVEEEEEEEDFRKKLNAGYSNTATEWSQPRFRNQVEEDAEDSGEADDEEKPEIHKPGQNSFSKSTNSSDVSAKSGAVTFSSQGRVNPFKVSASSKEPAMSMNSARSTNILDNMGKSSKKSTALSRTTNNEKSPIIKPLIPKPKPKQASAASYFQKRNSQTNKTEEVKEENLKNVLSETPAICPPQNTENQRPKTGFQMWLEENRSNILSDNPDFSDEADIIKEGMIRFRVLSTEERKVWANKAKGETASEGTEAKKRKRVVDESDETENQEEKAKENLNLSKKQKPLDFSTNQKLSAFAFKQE
The test is described as above.

In test [3] the target is T3, MBP-tagged AND-1CT (837–1129) (human, UniProt O75717 837-1129).
T3 construct: also called entire AND-1CT; source: E. coli Rosetta2(DE3), purified (Ni-NTA, Superdex 200)
T3 sequence (looked up): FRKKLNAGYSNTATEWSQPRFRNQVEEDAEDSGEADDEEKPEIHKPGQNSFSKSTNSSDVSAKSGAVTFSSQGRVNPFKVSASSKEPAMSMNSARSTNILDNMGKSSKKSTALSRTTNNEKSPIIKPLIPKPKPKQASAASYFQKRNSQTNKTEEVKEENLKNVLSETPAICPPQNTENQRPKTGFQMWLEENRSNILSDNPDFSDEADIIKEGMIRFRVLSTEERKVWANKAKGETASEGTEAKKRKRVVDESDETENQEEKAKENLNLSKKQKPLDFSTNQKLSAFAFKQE
Put plainly: pull-down; MBP-AND-1 constructs bound to 100 µl amylose resin, 25 nmol GST-B added as prey; PD buffer, 2.5 mg/ml BSA, 4°C; eluted with 20 mM maltose; Coomassie.

Another test deals with T4, AND-1 SepB (336–826) (human, UniProt O75717 336-826).
T4 construct: source: E. coli Rosetta2(DE3), purified (Ni-NTA, Q-Sepharose, TEV cleavage, Superdex 200)
T4 sequence (looked up): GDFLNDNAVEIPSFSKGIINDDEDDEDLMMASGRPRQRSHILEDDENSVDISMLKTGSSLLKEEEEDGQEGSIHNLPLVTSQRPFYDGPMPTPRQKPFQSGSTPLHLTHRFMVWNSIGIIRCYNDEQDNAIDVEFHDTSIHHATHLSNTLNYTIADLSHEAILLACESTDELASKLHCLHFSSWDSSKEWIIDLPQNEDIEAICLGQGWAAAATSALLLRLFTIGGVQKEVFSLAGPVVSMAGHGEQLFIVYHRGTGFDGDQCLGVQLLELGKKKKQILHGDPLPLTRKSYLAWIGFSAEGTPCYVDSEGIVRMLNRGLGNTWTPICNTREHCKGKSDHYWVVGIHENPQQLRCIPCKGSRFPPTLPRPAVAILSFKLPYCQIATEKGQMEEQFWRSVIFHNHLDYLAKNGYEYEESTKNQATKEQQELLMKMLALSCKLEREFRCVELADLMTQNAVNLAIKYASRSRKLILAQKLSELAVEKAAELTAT
Put plainly: pull-down; GST-Pol α fusion proteins bound to 100 µl glutathione agarose, 20 nmol AND-1 SepB added as prey; PD buffer, 2.5 mg/ml BSA, 4°C; eluted with 20 mM reduced glutathione; Coomassie.

B1: GST-BNTD (B subunit amino acids 1–78) (domain or fragment, human, UniProt Q14181 1-78, looked up)
chain: MSASAQQLAEELQIFGLDCEEALIEKLVELCVQYGQNEEGMVGELIAFCTSTHKVGLTSEILNSFEHEFLSKRLSKAR
notes: human DNA polymerase α B subunit, residues 1-78 (four-helix bundle N-terminal domain); also called GST-B(1–78); B N-terminal domain; source: E. coli Rosetta2(DE3), purified (Ni-NTA agarose)
Consider B1, for which the binding result in test [1], in test [2] and in test [3] was “binds” throughout.

B2: GST-Pol α (148–171), wild type (domain or fragment, human)
chain: DKAVDLSKDGLLGDILQDLNTETP
notes: also called GST-Pol α CIP; GST-tagged Pol α CIP; source: E. coli Rosetta2(DE3), purified (Ni-NTA agarose); not shown: His tag (from the purification on Ni-NTA)
With B2, the binding result in the test with AND-1 SepB (336–826) is recorded as “binds”.
